Consider seven substances from the supplement of paper PMC5998384.

The subject of data set [1] is HeLa Kyoto. The data set can be described thus: thermal stability score vs G1/S (z-score of summed log2 fold changes over temperatures); higher = more thermally stable than in G1/S.
Data set [2] relates to HeLa Kyoto. The data set can be described thus: solubility in G1/S (NP-40 vs SDS abundance) (log2 ratio); higher = more soluble. To be noted: cell cycle stage: G1/S.
Data set [3] concerns HeLa Kyoto. The experiment in a line: melting temperature (median over replicates), in situ; higher = more thermally stable.
Data set [4] concerns HeLa Kyoto. The data set can be described thus: solubility change mitosis vs G1/S (difference of NP-40 vs SDS log2 ratios) (log2 ratio difference); higher = more soluble in mitosis.
Where [5] appears, read: cell cycle stage: early G1 (4.5 h after nocodazole release).
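Wherever melting temperature (median over replicates), in situ is given: HeLa Kyoto cells synchronized by double thymidine or nocodazole block, proteins quantified by TMT10plex mass spectrometry, three independent biological replicates.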
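Wherever solubility change mitosis vs G1/S (difference of NP-40 vs SDS log2 ratios) is given: synchronized HeLa Kyoto cells (double thymidine block for G1/S, nocodazole release for mitosis), protein amounts in NP-40 versus SDS lysates quantified by mass spectrometry, three biological replicates.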
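Wherever solubility in G1/S (NP-40 vs SDS abundance) is given: HeLa Kyoto cells arrested at G1/S by double thymidine block, proteins quantified by TMT10plex mass spectrometry in mild NP-40 versus SDS extracts, three biological replicates.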
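Wherever thermal stability score vs G1/S (z-score of summed log2 fold changes over temperatures) is given: synchronized HeLa Kyoto cells, proteins quantified by TMT10plex mass spectrometry, three biological replicates, mitosis taken 0.5 h after nocodazole release, G1/S directly after double thymidine block.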

Chain of MAT2A (chain, as listed by the source): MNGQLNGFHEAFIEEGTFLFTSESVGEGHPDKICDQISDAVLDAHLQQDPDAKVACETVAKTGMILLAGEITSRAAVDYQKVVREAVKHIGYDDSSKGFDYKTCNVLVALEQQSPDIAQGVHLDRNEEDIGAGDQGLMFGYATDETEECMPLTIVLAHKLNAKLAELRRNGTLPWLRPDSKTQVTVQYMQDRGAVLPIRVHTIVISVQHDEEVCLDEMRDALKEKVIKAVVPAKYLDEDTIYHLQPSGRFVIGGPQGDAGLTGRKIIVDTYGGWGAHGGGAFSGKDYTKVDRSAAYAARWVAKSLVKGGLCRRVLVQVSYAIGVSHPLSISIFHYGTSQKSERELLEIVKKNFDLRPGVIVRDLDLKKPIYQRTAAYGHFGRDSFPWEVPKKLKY

As to “MSGLVLGQRDEPAGHRLSQEEILGSTRLVSQGLEALRSEHQAVLQSLSQTIECLQQGGHEEGLVHEKARQLRRSMENIELGLSEAQVMLALASHLSTVESEKQKLRAQVRRLCQENQWLRDELAGTQQRLQRSEQAVAQLEEEKKHLEFLGQLRQYDEDGHTSEEKEGDATKDSLDDLFPNEEEEDPSNGLSRGQGATAAQQGGYEIPARLRTLHNLVIQYAAQGRYEVAVPLCKQALEDLERTSGRGHPDVATMLNILALVYRDQNKYKEAAHLLNDALSIRESTLGPDHPAVAATLNNLAVLYGKRGKYKEAEPLCQRALEIREKVLGTNHPDVAKQLNNLALLCQNQGKYEAVERYYQRALAIYEGQLGPDNPNVARTKNNLASCYLKQGKYAEAETLYKEILTRAHVQEFGSVDDDHKPIWMHAEEREEMSKSRHHEGGTPYAEYGGWYKACKVSSPTVNTTLRNLGALYRRQGKLEAAETLEECALRSRRQGTDPISQTKVAELLGESDGRRTSQEGPGDSVKFEGGEDASVAVEWSGDGSGTLQRSGSLGKIRDVLRRSSELLVRKLQGTEPRPSSSNMKRAASLNYLNQPSAAPLQVSRGLSASTMDLSSSS [KLC4]”, the results for the thermal stability score in data set [1] (setting [5]) and in data set [1] (cell cycle stage: mitosis) were 0.719 and 1.19, respectively. Also, the “solubility in G1/S (log2)” value in data set [2] is 0.299. Besides, the melting temperature in data set [3] (cell cycle stage: G1/S) is 49.8 °C; in data set [3] (cell cycle stage: mitosis) it was 51.3 °C. Moreover, the “solubility change mitosis (log2)” value in data set [4] is -0.12.

“MGVQPPNFSWVLPGRLAGLALPRLPAHYQFLLDLGVRHLVSLTERGPPHSDSCPGLTLHRLRIPDFCPPAPDQIDRFVQIVDEANARGEAVGVHCALGFGRTGTMLACYLVKERGLAAGDAIAEIRRLRPGSIETYEQEKAVFQFYQRTK [DUSP23]”: the thermal stability score in data set [1] (setting [5]) was 0.571; in data set [1] (cell cycle stage: mitosis), -0.468. In addition, the “solubility in G1/S (log2)” value in data set [2] is 0.00547. Also, the melting temperature in data set [3] (cell cycle stage: G1/S) stood at 52.5 °C; in data set [3] (cell cycle stage: mitosis), 52.9 °C. In addition, the “solubility change mitosis (log2)” value in data set [4] was -0.112.

Turning to “MGKKSRAVPGRRPILQLSPPGPRGSTPGRDPEPEPDTEPDSTAAVPSQPAPSAATTTTTAVTAAAASDDSPSEDEQEAVQEVPRVVQNPPKPVMTTRPTAVKATGGLCLLGAYADSDDDDNDVSEKLAQSKETNGNQSTDIDSTLANFLAEIDAITAPQPAAPVGASAPPPTPPRPEPKEAATSTLSSSTSNGTDSTQTSGWQYDTQCSLAGVGIEMGDWQEVWDENTGCYYYWNTQTNEVTWELPQYLATQVQGLQHYQPSSVPGAETSFVVNTDIYSKEKTISVSSSKSGPVIAKREVKKEVNEGIQALSNSEEEKKGVAASLLAPLLPEGIKEEEERWRRKVICKEEPVSEVKETSTTVEEATTIVKPQEIMLDNIEDPSQEDLCSVVQSGESEEEEEQDTLELELVLERKKAELRALEEGDGSVSGSSPRSDISQPASQDGMRRLMSKRGKWKMFVRATSPESTSRSSSKTGRDTPENGETAIGAENSEKIDENSDKEMEVEESPEKIKVQTTPKVEEEQDLKFQIGELANTLTSKFEFLGINRQSISNFHVLLLQTETRIADWREGALNGNYLKRKLQDAAEQLKQYEINATPKGWSCHWDRDHRRYFYVNEQSGESQWEFPDGEEEEEESQAQENRDETLAKQTLKDKTGTDSNSTESSETSTGSLCKESFSGQVSSSSLMPLTPFWTLLQSNVPVLQPPLPLEMPPPPPPPPESPPPPPPPPPPAEDGEIQEVEMEDEGSEEPPAPGTEEDTPLKPSAQTTVVTSQSSVDSTISSSSSTKGIKRKATEISTAVVQRSATIGSSPVLYSQSAIATGHQAAGIGNQATGIGHQTIPVSLPAAGMGHQARGMSLQSNYLGLAAAPAIMSYAECSVPIGVTAPSLQPVQARGAVPTATIIEPPPPPPPPPPPPPPAPKMPPPEKTKKGRKDKAKKSKTKMPSLVKKWQSIQRELDEEDNSSSSEEDRESTAQKRIEEWKQQQLVSGMAERNANFEALPEDWRARLKRRKMAPNT [FNBP4]”, the thermal stability score in data set [1] (setting [5]) is -4.32; in data set [1] (cell cycle stage: mitosis) it was -4.84. In addition, the “solubility in G1/S (log2)” value in data set [2] was -0.323. For the same substance, the melting temperature in data set [3] (cell cycle stage: G1/S) came out at 62.5 °C; in data set [3] (cell cycle stage: mitosis), 62.1 °C. Besides, in data set [4], the “solubility change mitosis (log2)” value was 0.168.

On to NUMA1, for which the thermal stability score is 5.09 in data set [1] (setting [5]) and 8.74 in data set [1] (cell cycle stage: mitosis). Further, the “solubility in G1/S (log2)” value in data set [2] was -0.199. The melting temperature was 47.7 °C in data set [3] (cell cycle stage: G1/S) and 49.7 °C in data set [3] (cell cycle stage: mitosis). Moreover, the “solubility change mitosis (log2)” value in data set [4] is 0.493.

As for “MAAEPLTELEESIETVVTTFFTFARQEGRKDSLSVNEFKELVTQQLPHLLKDVGSLDEKMKSLDVNQDSELKFNEYWRLIGELAKEIRKKKDLKIRKK [S100A13]”, the thermal stability score was -6.56 in data set [1] (setting [5]) and -6.62 in data set [1] (cell cycle stage: mitosis). In addition, the “solubility in G1/S (log2)” value in data set [2] was -0.421. Besides, the values for the melting temperature in data set [3] (cell cycle stage: G1/S) and in data set [3] (cell cycle stage: mitosis) were 53.4 °C and 52 °C, respectively. The “solubility change mitosis (log2)” value in data set [4] was 0.294.

In the case of MAT2A, the thermal stability score was -0.032 in data set [1] (setting [5]) and 0.349 in data set [1] (cell cycle stage: mitosis). Further, the “solubility in G1/S (log2)” value in data set [2] was -0.00612. In addition, the melting temperature stood at 57 °C in data set [3] (cell cycle stage: G1/S) and 57.3 °C in data set [3] (cell cycle stage: mitosis). Further, in data set [4], the “solubility change mitosis (log2)” value was -0.123.

Take MIA3: the thermal stability score in data set [1] (setting [5]) came out at 3.98; in data set [1] (cell cycle stage: mitosis) it was 7.12. Further, the “solubility in G1/S (log2)” value in data set [2] stood at 0.245. Moreover, the figures for the melting temperature in data set [3] (cell cycle stage: G1/S) and in data set [3] (cell cycle stage: mitosis) were 51.4 °C and 52.2 °C, respectively. For the same substance, the “solubility change mitosis (log2)” value in data set [4] is -0.082.
